Reference: publication PMC12102759 (2025)

B1: AMOTL2 peptide 64-79 (Angiomotin-like protein 2), 16-mer library wild type / TNKS ANK (TNKS 12 ANK repeats, residues 174-649) (parent complex)
chain 1: QVLQQATRQEPQGQEH
chain 2: TGVPAVSGALRELLEACRNGDVSRVKRLVDAANVNAKDMAGRKSSPLHFAAGFGRKDVVEHLLQMGANVHARDDGGLIPLHNACSFGHAEVVSLLLCQGADPNARDNWNYTPLHEAAIKGKIDVCIVLLQHGADPNIRNTDGKSALDLADPSAKAVLTGEYKKDELLEAARSGNEEKLMALLTPLNVNCHASDGRKSTPLHLAAGYNRVRIVQLLLQHGADVHAKDKGGLVPLHNACSYGHYEVTELLLKHGACVNAMDLWQFTPLHEAASKNRVEVCSLLLSHGADPTLVNCHGKSAVDMAPTPELRERLTYEFKGHSLLQAAREADLAKVKKTLALEIINFKQPQSHETALHCAVASLHPKRKQVTELLLRKGANVNEKNKDFMTPLHVAAERAHNDVMEVLHKHGAKMNALDTLGQTALHRAALAGHLQTCRLLLSYGSDPSIISLQGFTAAQMGNEAVQQILSESTPIRTSD
B2: RNF115 peptide 69-84 (E3 ubiquitin-protein ligase RNF115), 16-mer library wild type / MDM2 SWIB (MDM2 SWIB/MDM2 domain, residues 17-125) (parent complex)
chain 1: THFAELWGHLDHTMFF
chain 2: SQIPASEQETLVRPKPLLLKLLKSVGAQKDTYTMKEVLFYLGQYIMTKRLYDEKQQHIVYCSNDLLGDLFGVPSFSVKEHRKIYTMIYRNLVVVNQQESSDSGTSVSEN

Variants of: B1
Experiment: proteomic peptide phage display deep mutational scan (ProP-PD DMS): M13 P8 16-mer library selected against immobilised GST-tagged bait for four days (rounds), NGS of the eluted pools per day and pseudo-replica; bait immobilised on MaxiSorp plates (10 µg), library pre-cleared on GST, 2 h binding at 4 °C, five washes; one round per day, days 1-4; value from days 2 and 3

Variant	screen value
chain 1 QVLQQATRQEPQGQEQ [chain 1 H16Q]	0.000195 average fractional NGS count over selection days 2 and 3 (reads of this peptide / all reads for the bait, averaged over …
chain 1 QVLQQLTRQEPQGQEH [chain 1 A6L]	0.000992 average fractional NGS count over selection days 2 and 3 (reads of this peptide / all reads for the bait, averaged over …
chain 1 QVLQQTTRQEPQGQEH [chain 1 A6T]	0.000175 average fractional NGS count over selection days 2 and 3 (reads of this peptide / all reads for the bait, averaged over …
chain 1 QVLQQATRQEPQGQEN [chain 1 H16N]	0.00139 average fractional NGS count over selection days 2 and 3 (reads of this peptide / all reads for the bait, averaged over …
chain 1 QVLQQATRDEPQGQEH [chain 1 Q9D]	0.00088 average fractional NGS count over selection days 2 and 3 (reads of this peptide / all reads for the bait, averaged over …
chain 1 QVLQQATRQEPAGQEH [chain 1 Q12A]	0.00119 average fractional NGS count over selection days 2 and 3 (reads of this peptide / all reads for the bait, averaged over …
chain 1 QVLQQATRQEPQGAEH [chain 1 Q14A]	0.0303 average fractional NGS count over selection days 2 and 3 (reads of this peptide / all reads for the bait, averaged over …
chain 1 QVLQQFTRQEPQGQEH [chain 1 A6F]	0.00286 average fractional NGS count over selection days 2 and 3 (reads of this peptide / all reads for the bait, averaged over …
chain 1 QVLQQATRQEPQVQEH [chain 1 G13V]	0.00137 average fractional NGS count over selection days 2 and 3 (reads of this peptide / all reads for the bait, averaged over …
chain 1 QVLQQATRQEPQGQER [chain 1 H16R]	0.00349 average fractional NGS count over selection days 2 and 3 (reads of this peptide / all reads for the bait, averaged over …
chain 1 QVNQQATRQEPQGQEH [chain 1 L3N]	0.00173 average fractional NGS count over selection days 2 and 3 (reads of this peptide / all reads for the bait, averaged over …
chain 1 QMLQQATRQEPQGQEH [chain 1 V2M]	0.000248 average fractional NGS count over selection days 2 and 3 (reads of this peptide / all reads for the bait, averaged over …
chain 1 QVLQIATRQEPQGQEH [chain 1 Q5I]	0.00183 average fractional NGS count over selection days 2 and 3 (reads of this peptide / all reads for the bait, averaged over …
chain 1 QVLQQQTRQEPQGQEH [chain 1 A6Q]	0.00606 average fractional NGS count over selection days 2 and 3 (reads of this peptide / all reads for the bait, averaged over …
chain 1 QVLQQATRQPPQGQEH [chain 1 E10P]	0.00208 average fractional NGS count over selection days 2 and 3 (reads of this peptide / all reads for the bait, averaged over …
chain 1 QVLQQATRQTPQGQEH [chain 1 E10T]	0.00297 average fractional NGS count over selection days 2 and 3 (reads of this peptide / all reads for the bait, averaged over …
chain 1 QVLQQATRSEPQGQEH [chain 1 Q9S]	0.000874 average fractional NGS count over selection days 2 and 3 (reads of this peptide / all reads for the bait, averaged over …
chain 1 QVLQQDTRQEPQGQEH [chain 1 A6D]	0.000263 average fractional NGS count over selection days 2 and 3 (reads of this peptide / all reads for the bait, averaged over …
chain 1 QVLQQATRQEPQGQIH [chain 1 E15I]	9.73e-05 average fractional NGS count over selection days 2 and 3 (reads of this peptide / all reads for the bait, averaged over …
chain 1 QVLQQATRQEPPGQEH [chain 1 Q12P]	0.000174 average fractional NGS count over selection days 2 and 3 (reads of this peptide / all reads for the bait, averaged over …
chain 1 QVLQQATRQSPQGQEH [chain 1 E10S]	0.000835 average fractional NGS count over selection days 2 and 3 (reads of this peptide / all reads for the bait, averaged over …
chain 1 QVLQQAFRQEPQGQEH [chain 1 T7F]	0.000844 average fractional NGS count over selection days 2 and 3 (reads of this peptide / all reads for the bait, averaged over …
chain 1 QVLQQATRQEPQGMEH [chain 1 Q14M]	0.000951 average fractional NGS count over selection days 2 and 3 (reads of this peptide / all reads for the bait, averaged over …

Variants of: B2
Experiment: as above

Variant	screen value
chain 1 F15M	0.0114 average fractional NGS count over selection days 2 and 3 (reads of this peptide / all reads for the bait, averaged over …
chain 1 T13W	0.000505 average fractional NGS count over selection days 2 and 3 (reads of this peptide / all reads for the bait, averaged over …
chain 1 H12V	0.000717 average fractional NGS count over selection days 2 and 3 (reads of this peptide / all reads for the bait, averaged over …
chain 1 T13G	0.00624 average fractional NGS count over selection days 2 and 3 (reads of this peptide / all reads for the bait, averaged over …
chain 1 F15H	0.000286 average fractional NGS count over selection days 2 and 3 (reads of this peptide / all reads for the bait, averaged over …
chain 1 L6M	0.000951 average fractional NGS count over selection days 2 and 3 (reads of this peptide / all reads for the bait, averaged over …
chain 1 T13Q	0.000442 average fractional NGS count over selection days 2 and 3 (reads of this peptide / all reads for the bait, averaged over …
chain 1 H12S	0.00289 average fractional NGS count over selection days 2 and 3 (reads of this peptide / all reads for the bait, averaged over …
chain 1 L10M	0.00099 average fractional NGS count over selection days 2 and 3 (reads of this peptide / all reads for the bait, averaged over …
chain 1 E5S	0.00184 average fractional NGS count over selection days 2 and 3 (reads of this peptide / all reads for the bait, averaged over …
chain 1 M14E	0.000177 average fractional NGS count over selection days 2 and 3 (reads of this peptide / all reads for the bait, averaged over …
chain 1 T1F	0.000233 average fractional NGS count over selection days 2 and 3 (reads of this peptide / all reads for the bait, averaged over …
chain 1 H2I	0.000473 average fractional NGS count over selection days 2 and 3 (reads of this peptide / all reads for the bait, averaged over …
chain 1 H9A	0.00146 average fractional NGS count over selection days 2 and 3 (reads of this peptide / all reads for the bait, averaged over …
chain 1 T13P	0.000265 average fractional NGS count over selection days 2 and 3 (reads of this peptide / all reads for the bait, averaged over …
chain 1 A4P	0.000473 average fractional NGS count over selection days 2 and 3 (reads of this peptide / all reads for the bait, averaged over …
chain 1 T1H	0.00126 average fractional NGS count over selection days 2 and 3 (reads of this peptide / all reads for the bait, averaged over …
chain 1 H2G	0.0014 average fractional NGS count over selection days 2 and 3 (reads of this peptide / all reads for the bait, averaged over …
chain 1 H2E	0.000801 average fractional NGS count over selection days 2 and 3 (reads of this peptide / all reads for the bait, averaged over …
chain 1 F15S	0.0126 average fractional NGS count over selection days 2 and 3 (reads of this peptide / all reads for the bait, averaged over …
chain 1 H2Q	0.00104 average fractional NGS count over selection days 2 and 3 (reads of this peptide / all reads for the bait, averaged over …
chain 1 H12L	0.000337 average fractional NGS count over selection days 2 and 3 (reads of this peptide / all reads for the bait, averaged over …

Variant	screen value
chain 1 H12N	0.00222 average fractional NGS count over selection days 2 and 3 (reads of this peptide / all reads for the bait, averaged over …
chain 1 L6V	0.000773 average fractional NGS count over selection days 2 and 3 (reads of this peptide / all reads for the bait, averaged over …
chain 1 F15R	0.00042 average fractional NGS count over selection days 2 and 3 (reads of this peptide / all reads for the bait, averaged over …
chain 1 T1D	0.000599 average fractional NGS count over selection days 2 and 3 (reads of this peptide / all reads for the bait, averaged over …
chain 1 H9K	0.0135 average fractional NGS count over selection days 2 and 3 (reads of this peptide / all reads for the bait, averaged over …
chain 1 G8T	0.00199 average fractional NGS count over selection days 2 and 3 (reads of this peptide / all reads for the bait, averaged over …
chain 1 M14F	0.000469 average fractional NGS count over selection days 2 and 3 (reads of this peptide / all reads for the bait, averaged over …
chain 1 G8N	0.00558 average fractional NGS count over selection days 2 and 3 (reads of this peptide / all reads for the bait, averaged over …
chain 1 E5V	0.000931 average fractional NGS count over selection days 2 and 3 (reads of this peptide / all reads for the bait, averaged over …
chain 1 D11Q	0.000111 average fractional NGS count over selection days 2 and 3 (reads of this peptide / all reads for the bait, averaged over …
chain 1 F15Q	0.0113 average fractional NGS count over selection days 2 and 3 (reads of this peptide / all reads for the bait, averaged over …
chain 1 M14P	0.00244 average fractional NGS count over selection days 2 and 3 (reads of this peptide / all reads for the bait, averaged over …
chain 1 A4M	0.000942 average fractional NGS count over selection days 2 and 3 (reads of this peptide / all reads for the bait, averaged over …
chain 1 E5Y	0.000681 average fractional NGS count over selection days 2 and 3 (reads of this peptide / all reads for the bait, averaged over …
chain 1 H12T	0.00036 average fractional NGS count over selection days 2 and 3 (reads of this peptide / all reads for the bait, averaged over …
chain 1 H9I	0.00113 average fractional NGS count over selection days 2 and 3 (reads of this peptide / all reads for the bait, averaged over …
chain 1 A4W	0.000398 average fractional NGS count over selection days 2 and 3 (reads of this peptide / all reads for the bait, averaged over …
chain 1 A4S	0.00536 average fractional NGS count over selection days 2 and 3 (reads of this peptide / all reads for the bait, averaged over …
chain 1 T1V	0.00156 average fractional NGS count over selection days 2 and 3 (reads of this peptide / all reads for the bait, averaged over …
chain 1 M14H	0.0015 average fractional NGS count over selection days 2 and 3 (reads of this peptide / all reads for the bait, averaged over …
chain 1 D11S	0.00405 average fractional NGS count over selection days 2 and 3 (reads of this peptide / all reads for the bait, averaged over …
chain 1 T13R	0.00097 average fractional NGS count over selection days 2 and 3 (reads of this peptide / all reads for the bait, averaged over …
